The values that follow come from patent US20250218531A1 (ABSCI, published 2025).

Residue numbers refer to the chain shown, from its start.

Sequences and labels used below:
B1: Trastuzumab HCDR3 variant AKYGRSDYGFEH (Fab, V domains shown)
VH: EVQLVESGGGLVQPGGSLRLSCAASGFNIKDTYIHWVRQAPGKGLEWVARIYPTNGYTRYADSVKGRFTISADTSKNTAYLQMNSLRAEDTAVYYCAKYGRSDYGFEHWGQGTLVTVSS
VL: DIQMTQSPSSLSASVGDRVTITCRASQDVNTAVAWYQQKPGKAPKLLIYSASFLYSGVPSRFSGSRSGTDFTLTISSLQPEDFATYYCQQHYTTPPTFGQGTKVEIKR
B2: Trastuzumab HCDR3 variant ARNYYGSYYFDY (Fab, V domains shown)
VH: B1 VH with K98R, Y99N, G100Y, R101Y, S102G, D103S, G105Y, E107D, H108Y
VL: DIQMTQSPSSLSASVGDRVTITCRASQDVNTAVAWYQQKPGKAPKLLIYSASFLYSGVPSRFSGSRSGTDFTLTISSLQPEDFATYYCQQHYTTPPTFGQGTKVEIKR
B3: Trastuzumab HCDR3 variant ARYFGGSYAYGR (Fab, V domains shown)
VH: B1 VH with K98R, G100F, R101G, S102G, D103S, G105A, F106Y, E107G, H108R
VL: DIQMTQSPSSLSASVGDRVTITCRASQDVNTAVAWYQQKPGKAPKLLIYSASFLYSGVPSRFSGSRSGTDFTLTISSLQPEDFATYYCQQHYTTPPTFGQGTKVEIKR
B4: Trastuzumab HCDR3 variant ARFLYGSYYFDY (Fab, V domains shown)
VH: B1 VH with K98R, Y99F, G100L, R101Y, S102G, D103S, G105Y, E107D, H108Y
VL: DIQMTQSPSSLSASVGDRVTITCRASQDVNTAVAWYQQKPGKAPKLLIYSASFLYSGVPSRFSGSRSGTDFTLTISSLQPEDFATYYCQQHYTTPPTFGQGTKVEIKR
B5: Trastuzumab HCDR3 variant ARTTISSSSYTG (Fab, V domains shown)
VH: B1 VH with K98R, Y99T, G100T, R101I, D103S, Y104S, G105S, F106Y, E107T, H108G
VL: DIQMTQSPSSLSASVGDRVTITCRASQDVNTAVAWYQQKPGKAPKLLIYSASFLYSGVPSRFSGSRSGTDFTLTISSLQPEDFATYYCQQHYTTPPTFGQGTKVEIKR
B6: Trastuzumab HCDR3 variant ARYGSGYYGLDY (Fab, V domains shown)
VH: B1 VH with K98R, R101S, S102G, D103Y, F106L, E107D, H108Y
VL: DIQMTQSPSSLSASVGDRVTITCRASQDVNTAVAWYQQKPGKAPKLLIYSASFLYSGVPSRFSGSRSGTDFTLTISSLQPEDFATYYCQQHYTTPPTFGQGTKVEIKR
B7: Trastuzumab HCDR3 variant ARGYFGGYYFAY (Fab, V domains shown)
VH: B1 VH with K98R, Y99G, G100Y, R101F, S102G, D103G, G105Y, E107A, H108Y
VL: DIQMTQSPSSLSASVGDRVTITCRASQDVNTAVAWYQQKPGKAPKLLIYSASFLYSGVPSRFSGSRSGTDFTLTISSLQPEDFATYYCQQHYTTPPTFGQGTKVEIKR
B8: Trastuzumab HCDR3 variant ARSTDYWHASQY (Fab, V domains shown)
VH: EVQLVESGGGLVQPGGSLRLSCAASGFNIKDTYIHWVRQAPGKGLEWVARIYPTNGYTRYADSVKGRFTISADTSKNTAYLQMNSLRAEDTAVYYCARSTDYWHASQYWGQGTLVTVSS
VL: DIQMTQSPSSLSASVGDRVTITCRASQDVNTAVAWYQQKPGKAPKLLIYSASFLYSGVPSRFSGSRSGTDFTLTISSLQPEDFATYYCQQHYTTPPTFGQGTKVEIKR
B9: Trastuzumab HCDR3 variant ARGYYYYFYYNY (Fab, V domains shown)
VH: B8 VH with S99G, T100Y, D101Y, W103Y, H104F, A105Y, S106Y, Q107N
VL: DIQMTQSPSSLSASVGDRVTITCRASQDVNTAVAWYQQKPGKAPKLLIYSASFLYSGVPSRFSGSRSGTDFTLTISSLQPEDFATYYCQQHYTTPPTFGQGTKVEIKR
B10: Trastuzumab HCDR3 variant ARSEWFWGSFAY (Fab, V domains shown)
VH: B8 VH with T100E, D101W, Y102F, H104G, A105S, S106F, Q107A
VL: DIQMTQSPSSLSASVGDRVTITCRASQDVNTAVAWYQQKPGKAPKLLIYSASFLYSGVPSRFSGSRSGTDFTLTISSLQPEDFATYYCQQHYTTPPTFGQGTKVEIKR
B11: Trastuzumab HCDR3 variant ARMSYYFYYMDY (Fab, V domains shown)
VH: B8 VH with S99M, T100S, D101Y, W103F, H104Y, A105Y, S106M, Q107D
VL: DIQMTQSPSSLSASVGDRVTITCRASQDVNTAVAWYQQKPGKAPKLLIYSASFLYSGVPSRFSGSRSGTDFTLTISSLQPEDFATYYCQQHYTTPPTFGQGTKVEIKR
B12: Trastuzumab HCDR3 variant ARYADYQFHFDN (Fab, V domains shown)
VH: B8 VH with S99Y, T100A, W103Q, H104F, A105H, S106F, Q107D, Y108N
VL: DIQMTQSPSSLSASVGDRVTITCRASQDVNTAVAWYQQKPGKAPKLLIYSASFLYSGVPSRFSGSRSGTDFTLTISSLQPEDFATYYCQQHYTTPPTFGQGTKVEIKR
B13: Trastuzumab HCDR3 variant AQSGSYFYPFSY (Fab, V domains shown)
VH: B1 VH with K98Q, Y99S, R101S, S102Y, D103F, G105P, E107S, H108Y
VL: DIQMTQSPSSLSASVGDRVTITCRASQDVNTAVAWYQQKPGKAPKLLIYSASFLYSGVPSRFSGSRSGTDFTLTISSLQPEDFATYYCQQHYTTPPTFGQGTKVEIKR
B14: Trastuzumab HCDR3 variant ALYKRYDYAFGY (Fab, V domains shown)
VH: B1 VH with K98L, G100K, S102Y, G105A, E107G, H108Y
VL: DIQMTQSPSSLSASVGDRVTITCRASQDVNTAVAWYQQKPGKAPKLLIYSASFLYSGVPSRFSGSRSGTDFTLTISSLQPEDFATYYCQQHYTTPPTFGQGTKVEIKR
B15: Trastuzumab HCDR3 variant ARHGSYYYDFDF (Fab, V domains shown)
VH: B1 VH with K98R, Y99H, R101S, S102Y, D103Y, G105D, E107D, H108F
VL: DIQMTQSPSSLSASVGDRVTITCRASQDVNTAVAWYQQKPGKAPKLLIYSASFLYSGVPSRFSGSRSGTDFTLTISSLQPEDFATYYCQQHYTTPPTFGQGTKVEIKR
B16: Trastuzumab HCDR3 variant ARASWNWYGGDY (Fab, V domains shown)
VH: B8 VH with S99A, T100S, D101W, Y102N, H104Y, A105G, S106G, Q107D
VL: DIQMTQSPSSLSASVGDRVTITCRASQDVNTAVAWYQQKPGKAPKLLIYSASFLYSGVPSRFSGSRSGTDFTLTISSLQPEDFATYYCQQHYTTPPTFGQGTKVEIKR
B17: Trastuzumab HCDR3 variant ARYGRDYYYFDV (Fab, V domains shown)
VH: B1 VH with K98R, S102D, D103Y, G105Y, E107D, H108V
VL: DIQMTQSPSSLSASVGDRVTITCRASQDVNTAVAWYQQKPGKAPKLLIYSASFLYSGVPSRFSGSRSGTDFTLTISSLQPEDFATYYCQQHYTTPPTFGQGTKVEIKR
B18: Trastuzumab HCDR3 variant ARHHYSGYFHDV (Fab, V domains shown)
VH: B1 VH with K98R, Y99H, G100H, R101Y, D103G, G105F, F106H, E107D, H108V
VL: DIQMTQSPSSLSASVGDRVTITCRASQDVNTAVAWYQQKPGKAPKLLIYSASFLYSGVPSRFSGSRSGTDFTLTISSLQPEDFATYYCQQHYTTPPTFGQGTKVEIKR
B19: Trastuzumab HCDR3 variant ARASWYWYGGDK (Fab, V domains shown)
VH: B8 VH with S99A, T100S, D101W, H104Y, A105G, S106G, Q107D, Y108K
VL: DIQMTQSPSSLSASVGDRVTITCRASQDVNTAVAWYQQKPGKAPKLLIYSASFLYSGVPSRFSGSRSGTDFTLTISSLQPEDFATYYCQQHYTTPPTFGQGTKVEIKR
B20: Trastuzumab HCDR3 variant ARWLYYGYYFDY (Fab, V domains shown)
VH: B8 VH with S99W, T100L, D101Y, W103G, H104Y, A105Y, S106F, Q107D
VL: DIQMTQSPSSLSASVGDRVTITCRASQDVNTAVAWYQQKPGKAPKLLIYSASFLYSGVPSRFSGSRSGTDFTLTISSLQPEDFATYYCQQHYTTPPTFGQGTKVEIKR
B21: Trastuzumab HCDR3 variant AKYGTSNYGFSH (Fab, V domains shown)
VH: B1 VH with R101T, D103N, E107S
VL: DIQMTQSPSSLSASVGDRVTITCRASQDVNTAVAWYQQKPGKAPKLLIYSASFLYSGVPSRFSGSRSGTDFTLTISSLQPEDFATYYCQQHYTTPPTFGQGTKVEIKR
B22: Trastuzumab HCDR3 variant ARSYYGAYYFDY (Fab, V domains shown)
VH: B8 VH with T100Y, D101Y, Y102G, W103A, H104Y, A105Y, S106F, Q107D
VL: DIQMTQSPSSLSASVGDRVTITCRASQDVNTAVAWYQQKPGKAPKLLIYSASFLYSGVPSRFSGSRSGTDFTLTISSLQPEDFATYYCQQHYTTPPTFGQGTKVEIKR
B23: Trastuzumab HCDR3 variant ARYGGAGYYLDY (Fab, V domains shown)
VH: B1 VH with K98R, R101G, S102A, D103G, G105Y, F106L, E107D, H108Y
VL: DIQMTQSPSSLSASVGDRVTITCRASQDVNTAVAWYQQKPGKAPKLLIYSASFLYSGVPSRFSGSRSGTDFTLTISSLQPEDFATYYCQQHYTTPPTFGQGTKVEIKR
B24: Trastuzumab HCDR3 variant ARGYYHYYHYQY (Fab, V domains shown)
VH: B8 VH with S99G, T100Y, D101Y, Y102H, W103Y, H104Y, A105H, S106Y
VL: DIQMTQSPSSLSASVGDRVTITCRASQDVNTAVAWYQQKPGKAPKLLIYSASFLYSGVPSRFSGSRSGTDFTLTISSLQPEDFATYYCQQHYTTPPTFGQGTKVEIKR
B25: Trastuzumab HCDR3 variant ARGYYYYQWYYY (Fab, V domains shown)
VH: B8 VH with S99G, T100Y, D101Y, W103Y, H104Q, A105W, S106Y, Q107Y
VL: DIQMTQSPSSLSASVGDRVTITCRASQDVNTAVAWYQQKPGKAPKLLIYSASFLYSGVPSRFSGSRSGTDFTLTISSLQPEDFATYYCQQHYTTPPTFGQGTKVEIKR
B26: Trastuzumab HCDR3 variant ARWSWPGYEFEF (Fab, V domains shown)
VH: B1 VH with K98R, Y99W, G100S, R101W, S102P, D103G, G105E, H108F
VL: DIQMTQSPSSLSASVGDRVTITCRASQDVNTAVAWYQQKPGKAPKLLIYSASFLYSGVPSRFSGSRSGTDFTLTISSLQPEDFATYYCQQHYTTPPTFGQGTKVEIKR
B27: Trastuzumab HCDR3 variant ALLYGYYPSGVG (Fab, V domains shown)
VH: B8 VH with R98L, S99L, T100Y, D101G, W103Y, H104P, A105S, S106G, Q107V, Y108G
VL: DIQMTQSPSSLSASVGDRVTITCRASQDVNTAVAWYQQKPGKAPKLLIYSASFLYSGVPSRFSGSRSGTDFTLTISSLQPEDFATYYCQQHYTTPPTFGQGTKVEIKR
B28: Trastuzumab HCDR3 variant ARGYWWLYGFAY (Fab, V domains shown)
VH: B1 VH with K98R, Y99G, G100Y, R101W, S102W, D103L, E107A, H108Y
VL: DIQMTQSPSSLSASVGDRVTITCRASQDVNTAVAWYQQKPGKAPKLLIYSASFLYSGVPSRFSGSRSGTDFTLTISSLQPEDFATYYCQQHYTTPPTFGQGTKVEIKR
B29: Trastuzumab HCDR3 variant ARNYVYWYGMTV (Fab, V domains shown)
VH: B8 VH with S99N, T100Y, D101V, H104Y, A105G, S106M, Q107T, Y108V
VL: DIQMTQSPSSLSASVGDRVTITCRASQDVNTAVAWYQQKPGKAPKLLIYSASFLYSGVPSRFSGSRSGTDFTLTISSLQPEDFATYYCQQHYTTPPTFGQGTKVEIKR
B30: Trastuzumab HCDR3 variant ARWRDYYYYFDY (Fab, V domains shown)
VH: B8 VH with S99W, T100R, W103Y, H104Y, A105Y, S106F, Q107D
VL: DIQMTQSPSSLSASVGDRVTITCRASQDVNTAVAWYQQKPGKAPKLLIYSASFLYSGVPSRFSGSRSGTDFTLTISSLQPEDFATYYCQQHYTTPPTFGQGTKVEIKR
B31: Trastuzumab HCDR3 variant ARFPVSSYAYGF (Fab, V domains shown)
VH: B1 VH with K98R, Y99F, G100P, R101V, D103S, G105A, F106Y, E107G, H108F
VL: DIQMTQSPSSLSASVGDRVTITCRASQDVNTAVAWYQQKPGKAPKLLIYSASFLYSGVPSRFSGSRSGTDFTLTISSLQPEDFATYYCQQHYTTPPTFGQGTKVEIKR
B32: Trastuzumab HCDR3 variant ARYGTYGYAMDY (Fab, V domains shown)
VH: B8 VH with S99Y, T100G, D101T, W103G, H104Y, S106M, Q107D
VL: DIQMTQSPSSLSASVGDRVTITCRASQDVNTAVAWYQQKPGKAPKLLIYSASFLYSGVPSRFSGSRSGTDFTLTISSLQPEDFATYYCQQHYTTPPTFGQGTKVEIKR
B33: Trastuzumab HCDR3 variant ARSGEGYYAFDY (Fab, V domains shown)
VH: B8 VH with T100G, D101E, Y102G, W103Y, H104Y, S106F, Q107D
VL: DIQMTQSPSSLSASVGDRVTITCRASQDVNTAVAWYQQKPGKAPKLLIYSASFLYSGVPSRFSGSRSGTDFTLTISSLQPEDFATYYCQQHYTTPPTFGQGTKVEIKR

For the experiment, the target named is human epidermal growth factor receptor 2 (HER2) extracellular domain (human, UniProt P04626 23-629). The experiment in a line: SPR. On the technique in general: Surface plasmon resonance follows binding to a sensor surface in real time, without labels.
Turning to B1, the Kd (commonly a measure of binding affinity in units of concentration) is 133 nM and the “log(KD (M))” value is -6.88 log(M).
As to B2, the Kd came to 120 nM and the “log(KD (M))” value is -6.92 log(M).
As to B3, the Kd is 28 nM and the “log(KD (M))” value is -7.55 log(M).
In the same order, the values of B4 are 135 nM and -6.87 log(M).
On the same counts, the results for B5 are 248 nM and -6.61 log(M).
In the same order, the values of B6 are 51.5 nM and -7.29 log(M).
In the case of B7, the Kd is 130 nM and the “log(KD (M))” value was -6.88 log(M).
On the same counts, the results for B8 are 179 nM and -6.75 log(M).
On the same counts, the results for B9 are 30.3 nM and -7.52 log(M).
In the case of B10, the Kd was 114 nM and the “log(KD (M))” value was -6.94 log(M).
On the same counts, the results for B11 are 48.9 nM and -7.31 log(M).
In the same order, the values of B12 are 39.6 nM and -7.4 log(M).
As to B13, the Kd was 83.2 nM and the “log(KD (M))” value is -7.08 log(M).
On the same counts, the results for B14 are 86.6 nM and -7.06 log(M).
In the same order, the values of B15 are 56.6 nM and -7.25 log(M).
In the same order, the values of B16 are 92.9 nM and -7.03 log(M).
As to B17, binding was put at a Kd of 106 nM and the “log(KD (M))” value was -6.97 log(M).
With B18, binding was characterised by a dissociation constant (Kd) of 148 nM and the “log(KD (M))” value is -6.83 log(M).
In the same order, the values of B19 are 37.8 nM and -7.42 log(M).
In the same order, the values of B20 are 28 nM and -7.55 log(M).
In the same order, the values of B21 are 27.6 nM and -7.56 log(M).
With B22, the Kd is 202 nM and the “log(KD (M))” value was -6.7 log(M).
On the same counts, the results for B23 are 32.4 nM and -7.49 log(M).
In the same order, the values of B24 are 95.1 nM and -7.02 log(M).
With B25, the Kd is 33.6 nM and the “log(KD (M))” value was -7.47 log(M).
As to B26, the Kd stood at 177 nM and the “log(KD (M))” value is -6.75 log(M).
On the same counts, the results for B27 are 262 nM and -6.58 log(M).
On the same counts, the results for B28 are 172 nM and -6.77 log(M).
On the same counts, the results for B29 are 27.5 nM and -7.56 log(M).
In the case of B30, the Kd was determined as 33.8 nM and the “log(KD (M))” value is -7.47 log(M).
On the same counts, the results for B31 are 36.2 nM and -7.44 log(M).
Regarding B32, the affinity, expressed as Kd, was 65.5 nM and the “log(KD (M))” value was -7.18 log(M).
On the same counts, the results for B33 are 210 nM and -6.68 log(M).
